Reference: article doi:10.1101/2025.03.14.642698
Blank lines part the entries; values can stand above or below the binder they belong to.

Legend:
[1] = biological target: Ldb16 (1-133 6A)-FLAG, genomically expressed (S. cerevisiae) (UniProt P25587); experiment: co-IP
[2] = biological target: Ldb16 (1-133 ΔH)-FLAG, genomically expressed (S. cerevisiae) (UniProt P25587); experiment: co-IP

Ldo co-immunoprecipitation compared to Ldb16 1-133 (% lower than 1-133) [1]: 50
Ldo co-immunoprecipitation compared to Ldb16 1-133 (% lower than 1-133) [2]: 50
B1: Ldo45-HA, endogenously tagged (natural protein)
chain: MAARNRRKNNKKKSLLVTSAAQEKNATYVLVAEELHKKTIDLNMGTETPLTENHENPIPAKEFKHQQKLEPIDEHDDGEDELSIKFKSMTKSSGPITEAEVQKLLLSYAFTSAAIQEDENEKESRHYPIKPPSPSASSLSAYFQSFVEKCKQVFYNFSLQTVEKLNALQNSLYEVFWIIFIYLNYWFPNVGDYVSNTFGQQDSIIIRISLSKSHFRALREKSSQKVQQAVKNIYFCFQEKPYLTAFKVSFAIGLVIPCSLLFLIMVSTATFFFFVYLTLFVVIGFFSSLFIIPLLGISFVFAIGVVSFGFCSNMSFKMAQLIYVRADAFLKKVLDKMALQTQPAQLQEPQEPLSTLRPVSNPTIPSPLRQTARPSKFVTEEDVIFEPVSAQSAIARSLETTANKAGNKFQLS

Ldo co-immunoprecipitation compared to Ldb16 1-133 (% lower than 1-133) [1]: 50
Ldo co-immunoprecipitation compared to Ldb16 1-133 (% lower than 1-133) [2]: 50
B2: Ldo16-HA, endogenously tagged (natural protein)
chain: MVSTATFFFFVYLTLFVVIGFFSSLFIIPLLGISFVFAIGVVSFGFCSNMSFKMAQLIYVRADAFLKKVLDKMALQTQPAQLQEPQEPLSTLRPVSNPTIPSPLRQTARPSKFVTEEDVIFEPVSAQSAIARSLETTANKAGNKFQLS
